± gives the uncertainty stated by the source.
Test: self-splicing fitness, log relative to wild type (ln ratio); higher = more splicing; Tetrahymena group I intron in knt gene, E. coli kanamycin selection, DiMSum; sequences stand for … in CUCUCU…GGAGGGAAAAGUUAUCAGGCAUGCACCUGGUAGCUAGUCUUUAAACCAAUAGAUUGCAUCGGUUUAAAAGGCAAGACCGUCAAAUUGCGGGAAAGGGGUCAACAGCCGUUCAGUACCAAGUCUCAGGGGAAACUUUGAGAUGGCCUUGCAAAGGGUAUGGUAAUAAGCUGACGGACAUGGUCCUAACCACGCAGCCAAGUCCUAAGUCAACAGAUCUUCUGUUGAUAUGGAUGCAGUUCACAGACUAAAUGUCGGUCGGGGAAGAUGUAUUCUUCUCAUAAGAUAUAGUCGGACCUCUCCUUAAUGGGAGCUAGCGGAUGAAGUGAUGCAACACUGGAGCCGCUGGGAACUAAUUUGUAUGCGAAAGUAUAUUGAUUAGUUUUGGAGUACUCGUGGUCG
Procedure, shortened: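 Library with all eight P1ex-region intron nucleotides randomised, intron inside the knt kanamycin-resistance gene on pET-22b(+), in E. coli BL21(DE3). Cells grew overnight at 37°C or 30°C on LB agar with or without 25 μg/mL kanamycin (plus 100 μg/mL carbenicillin, 50 μM IPTG, 0.2% rhamnose), in six replicate transformations. Pooled colonies were amplicon-sequenced on Illumina HiSeq 2500. DiMSum fitness is the error-weighted combination of wild-type-normalised replicate fold changes, kanamycin versus none.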

| Sequence | self-splicing fitness (ln) (30 °C) | self-splicing fitness (ln) (37 °C) |
| --- | --- | --- |
| AAUAAGCAAUAUUACGAAAC | -3.3 ± 0.39 | -2.17 ± 0.49 |
| CACUAGCAAUAUUACGUACA | -2.35 ± 0.21 | -1.29 ± 0.4 |
| GGGUAGCAAUAUUACGUGGA | -3.45 ± 0.2 | -2.02 ± 0.097 |
| CGUGAGCAAUAUUACGGGCA | -1.6 ± 0.12 | -1.63 ± 0.16 |
| GAUAAGCAAUAUUACGCAUG | -1.21 ± 0.084 | -0.777 ± 0.11 |
| AGUAAGCAAUAUUACGGCUC | -2.15 ± 0.2 | -1.79 ± 0.27 |
| ACUGAGCAAUAUUACGUGUG | -2.22 ± 0.11 | -2.13 ± 0.16 |
| CCGUAGCAAUAUUACGGGCU | -2.94 ± 0.16 | -2.27 ± 0.21 |
| UUUCAGCAAUAUUACGUUUU | -3.86 ± 0.23 | -1.13 ± 0.14 |
| UCGAAGCAAUAUUACGUGAU | -2.71 ± 0.16 | -1.37 ± 0.17 |
| UGCCAGCAAUAUUACGUAAU | -2.36 ± 0.14 | -2.16 ± 0.18 |
| GCUAAGCAAUAUUACGGAAG | -1.5 ± 0.071 | -0.648 ± 0.088 |
| AACUAGCAAUAUUACGGGAG | -1.35 ± 0.11 | -1.21 ± 0.13 |
| UACCAGCAAUAUUACGCGGC | -3.78 ± 0.13 | -3.27 ± 0.18 |
| GAGUAGCAAUAUUACGACAU | -0.282 ± 0.014 | -0.127 ± 0.033 |
| UUGCAGCAAUAUUACGUCCC |  | -1.44 ± 0.37 |
| CUACAGCAAUAUUACGUUAG | -3.78 ± 0.23 | -2.54 ± 0.14 |
| UUUCAGCAAUAUUACGUCAG | -0.968 ± 0.089 | -0.726 ± 0.12 |
| AUAAAGCAAUAUUACGGGGU | -2.63 ± 0.16 | -1.99 ± 0.14 |
| CUAUAGCAAUAUUACGGGCU | -2.63 ± 0.19 | -3.38 ± 0.39 |
| CGCCAGCAAUAUUACGCCGC | -2.72 ± 0.21 | -1.39 ± 0.39 |
| UGUAAGCAAUAUUACGGCCC | -2.98 ± 0.38 |  |
| GGGUAGCAAUAUUACGUCAG |  | -0.355 ± 0.32 |
| AUUUAGCAAUAUUACGGCCU | 0.607 ± 0.15 | -0.166 ± 0.16 |
| UUAUAGCAAUAUUACGAGCG | -0.835 ± 0.28 | -0.754 ± 0.29 |

| Sequence | self-splicing fitness (ln) (30 °C) | self-splicing fitness (ln) (37 °C) |
| --- | --- | --- |
| UGCUAGCAAUAUUACGCUAU | -2.75 ± 0.21 | -0.801 ± 0.12 |
| ACGAAGCAAUAUUACGGUAA | -2.49 ± 0.17 | -1.33 ± 0.14 |
| CGGUAGCAAUAUUACGAGCU | -2.4 ± 0.15 | -1.89 ± 0.2 |
| AACUAGCAAUAUUACGGUCC | -0.628 ± 0.13 | -0.637 ± 0.15 |
| CGAUAGCAAUAUUACGGUCC | -1.2 ± 0.21 | -0.541 ± 0.23 |
| AAUCAGCAAUAUUACGCGAA | -0.0302 ± 0.071 | 0.278 ± 0.098 |
| CACGAGCAAUAUUACGACGG | -1.6 ± 0.13 | -0.392 ± 0.14 |
| CUUCAGCAAUAUUACGAGAG | -2.81 ± 0.12 | -1.79 ± 0.14 |
| GUUAAGCAAUAUUACGUCCU | -0.303 ± 0.081 | 0.0564 ± 0.083 |
| CGUCAGCAAUAUUACGUUAC | -2.78 ± 0.21 | -3.22 ± 0.24 |
| AGCCAGCAAUAUUACGGACG | 0.121 ± 0.072 | 0.405 ± 0.094 |
| GAAGAGCAAUAUUACGCGUU | -3.69 ± 0.33 | -3.12 ± 0.28 |
| AUUCAGCAAUAUUACGCCUU | -0.723 ± 0.079 | -0.133 ± 0.096 |
| UGCCAGCAAUAUUACGGGAC | -3.51 ± 0.34 | -1.95 ± 0.3 |
| UAGGAGCAAUAUUACGGACA | -3.74 ± 0.4 | -0.442 ± 0.18 |
| CCUUAGCAAUAUUACGUAUC | -4.15 ± 0.27 | -2.17 ± 0.26 |
| CACUAGCAAUAUUACGGUUC | -2.4 ± 0.12 | -1.45 ± 0.16 |
| CCCCAGCAAUAUUACGUCCG |  | -2.09 ± 0.28 |
| AUUCAGCAAUAUUACGCGGU | -3 ± 0.14 | -2.21 ± 0.15 |
| GGCAAGCAAUAUUACGGGCC | -2.85 ± 0.39 |  |
| GGACAGCAAUAUUACGUUCA | -0.478 ± 0.086 | -0.434 ± 0.1 |
| UGUUAGCAAUAUUACGUACA | -0.999 ± 0.11 | 0.16 ± 0.13 |
| GCACAGCAAUAUUACGUCCG | -0.402 ± 0.09 | -0.201 ± 0.11 |
| UAGAAGCAAUAUUACGAUGA | -0.692 ± 0.13 | -0.446 ± 0.1 |
